Test results taken from patent publication US10400249B2, “HPPD variants and methods of use” (priority 2014, dated 2019).

Columns and labels:
[1] = system: Pseudomonas fluorescens HPPD protein; test: HGD assay: HPPD activity coupled to HGA dioxygenase, pI50 and type of inhibition (time-course); type: biochemical; settings: for tolerance (pI50) Cmpd. 2: inhibitor Cmpd. 2, HGD assay; for pI50-values of Cmpd. 2: assay not given, follows the time-course analysis (HGD assay)
Procedure: (§1) HPPD proteins were produced and purified as described in WO2011/076882. The activity of HPPD proteins in absence or presence of HPPD inhibitors was determined using either the so called OD assay or the HGD assay.
(§2) • a) The OD assay: The HPPD activity was determined colourimetrically by measuring the amount of HPP remaining in the assay mixture at the end of the incubation period after derivatisation of HPP with 2,4-dinitrophenylhydrazine (DNP) to form an amber-brown colored 2,4-dinitrophenylhydrazone under alkaline conditions. The assay was carried out at room temperature in Greiner F-bottom 96 well microplates. The assay mixture contained 50 mM Tris-HCl pH 7.8, 0.5 mM HPP, 10 mM ascorbate, 650 units of catalase and appropriate amounts of purified HPPD enzyme in a total assay volume of 100 μl. The reaction was started by the addition of enzyme. After an incubation time of 24 minutes, the reaction was stopped by the addition of 50 μl of a solution of 0.04% DNP dissolved in 3.8 N HCl. After a further 15-minute incubation period 100 μl of a 5 N KOH solution was added to the reaction mixture and the amount of unconsumed HPP was measured photometrically at 405 nm. Enzyme activity was calculated as the difference in E405 between assays lacking enzyme (negative control) and the enzyme containing assays (ΔE405=E405(negative control)−E405). Enzyme activity (nmol substrate consumed per min) was calculated from a calibration curve generated from HPP. pI50-values (the negative log value of the concentration of inhibitor necessary to inhibit 50% of the enzyme activity in molar concentration were determined from dose-response plots of HPPD activity versus inhibitor concentration tested (5.0×10^−6, 1.0×10^−5, 2.5×10^−5, 4.0×10^−5, 7.0×10^−5, 1.0×10^−4, 2.0×10^−4 and 5.0×10^−4M) using the 4 Parameter Logistic Model or Sigmoidal Dose-Response Model of the ID Business Solutions Ltd. XLfit software suite. The result “>5.6” means that the inhibition at the lowest inhibitor concentration tested was higher than 85% and the pI50-value could therefore not be precisely calculated within in the range of concentration of inhibitor tested. The result “<2.5” means that the inhibition at the highest inhibitor concentration tested was lower than 25% and the pI50-value could therefore not be precisely calculated within in the range of concentration of inhibitor tested. “n.d.” means not determined. • b) The HGD assay: With the HGD assay HPPD activity was measured at room temperature by adding appropriate amounts of HPPD to a solution of 200 mM Tris-HCl pH 7.6, 10 mM ascorbate, 20 μM FeSO4, 650 units of catalase, 8 μg HGA dioxygenase (HGA: homogentisate) and 600 μM HPP in a total volume of 1 ml. Initial reaction rates in the absence or presence of inhibitors were determined from the increase in absorbance at 318 nm due to the formation of maleylacetoacetate (ε318=11,900 M−1 cm-1). pI50-values (the negative log value of the concentration of inhibitor necessary to inhibit 50% of the enzyme activity in molar concentration were determined from dose-response plots of HPPD activity versus inhibitor concentration tested using the 4 Parameter Logistic Model or Sigmoidal Dose-Response Model of the ID Business Solutions Ltd. XLfit software suite. Due to the UV absorption of the HPPD inhibitors tested, inhibitor concentrations >100 μM could not be tested. The result “<4” means that the inhibition at 100 μM inhibitor concentration was lower than 25% and the pI50-value could therefore not be precisely calculated within in the range of concentration of inhibitor tested. “n.d.” means not determined. The HGD assay allowed to continuously follow HPPD-catalyzed HGA formation over time was therefore used to determine the inhibition type of the HPPD inhibitors tested. […] When in the presence of an inhibitor the HPPD activity was inhibited but the inhibition was found not to […] in a time-dependent manner, the inhibitor was called reversible (abbreviation “rev”). […]

[2] = system: Pseudomonas fluorescens HPPD protein; test: OD assay: HPPD activity and pI50 from HPP remaining after derivatisation with DNP; type: biochemical; settings: for Activity DeltaE/24 min μg Protein: HPPD enzyme activity of the clone; for tolerance (pI50) Cmpd. 2: inhibitor Cmpd. 2; for tolerance (pI50) DKN: inhibitor diketonitrile (DKN), negative log of molar concentration; for tolerance (pI50) MST: inhibitor mesotrione (MST); for tolerance (pI50) TBT: inhibitor tembotrione (TBT)
Procedure: as §1, §2

Molecule | mechanism of inhibition by Cmpd. 2, time-course of inhibition [1] | tolerance (pI50) Cmpd. 2 [1] | Activity DeltaE/24 min μg Protein [2] [DeltaE/24 min μg Protein] | tolerance (pI50) Cmpd. 2 [2] | tolerance (pI50) DKN [2] | tolerance (pI50) MST [2] | tolerance (pI50) TBT [2] | pI50-values of Cmpd. 2 [1]
K300: PfHPPD variant P215L, E335P, G336F, A340G (protein, HPPD variant - K300, PfHPPD variant P215L, E335P, G336F, A340G) MADLYENPMGLMGFEFIEFASPTPGTLEPIFEIMGFTKVATHRSKNVHLYRQGEINLILNNEPNSIASYFAAEHGPSVCGMAFRVKDSQKAYNRALELGAQPIHIDTGPMELNLPAIKGIGGAPLYLIDRFGEGSSIYDIDFVYLEGVERNPVGAGLKVIDHLTHNVYRGRMVYWANFYEKLFNFREARYFDIKGEYTGLTSKAMSAPDGMIRILLNEESSKGAGQIEEFLMQFNGEGIQHVAFLTDDLVKTWDALKKIGMRFMTAPPDTYYEMLEGRLPDHGEPVDQLQARGILLDGSSVEGDKRLLLQIFSETLMGPVFFEFIQRKGDDGFGPFNFKGLFESIERDQVRRGVLTAD | fully reversible inhibitor | 4.3 | 0.01 | 3.8 | <2.5 | <2.5 | 3.1 | –
K250: PfHPPD variant A188G, R189C, P215L, E335P, G336F, A340E (protein, HPPD variant - K250, PfHPPD variant A188G, R189C, P215L, E335P, G336F, A340E) MADLYENPMGLMGFEFIEFASPTPGTLEPIFEIMGFTKVATHRSKNVHLYRQGEINLILNNEPNSIASYFAAEHGPSVCGMAFRVKDSQKAYNRALELGAQPIHIDTGPMELNLPAIKGIGGAPLYLIDRFGEGSSIYDIDFVYLEGVERNPVGAGLKVIDHLTHNVYRGRMVYWANFYEKLFNFREGCYFDIKGEYTGLTSKAMSAPDGMIRILLNEESSKGAGQIEEFLMQFNGEGIQHVAFLTDDLVKTWDALKKIGMRFMTAPPDTYYEMLEGRLPDHGEPVDQLQARGILLDGSSVEGDKRLLLQIFSETLMGPVFFEFIQRKGDDGFGPFNFKELFESIERDQVRRGVLTAD | fully reversible inhibitor | – | 0.07 | 4.6 | <2.5 | 3.0 | 3.8 | < 4
K325: PfHPPD variant A188G, R189C, P215N, E335P, G336F, A340E (protein, HPPD variant - K325, PfHPPD variant A188G, R189C, P215N, E335P, G336F, A340E) MADLYENPMGLMGFEFIEFASPTPGTLEPIFEIMGFTKVATHRSKNVHLYRQGEINLILNNEPNSIASYFAAEHGPSVCGMAFRVKDSQKAYNRALELGAQPIHIDTGPMELNLPAIKGIGGAPLYLIDRFGEGSSIYDIDFVYLEGVERNPVGAGLKVIDHLTHNVYRGRMVYWANFYEKLFNFREGCYFDIKGEYTGLTSKAMSAPDGMIRINLNEESSKGAGQIEEFLMQFNGEGIQHVAFLTDDLVKTWDALKKIGMRFMTAPPDTYYEMLEGRLPDHGEPVDQLQARGILLDGSSVEGDKRLLLQIFSETLMGPVFFEFIQRKGDDGFGPFNFKELFESIERDQVRRGVLTAD | fully reversible inhibitor | – | 0.41 | 5.6 | <2.5 | 3.6 | 4.6 | 5.5
K363: PfHPPD variant Q226H, E335P, G336F, A340E (protein, HPPD variant - K363, PfHPPD variant Q226H, E335P, G336F, A340E) MADLYENPMGLMGFEFIEFASPTPGTLEPIFEIMGFTKVATHRSKNVHLYRQGEINLILNNEPNSIASYFAAEHGPSVCGMAFRVKDSQKAYNRALELGAQPIHIDTGPMELNLPAIKGIGGAPLYLIDRFGEGSSIYDIDFVYLEGVERNPVGAGLKVIDHLTHNVYRGRMVYWANFYEKLFNFREARYFDIKGEYTGLTSKAMSAPDGMIRIPLNEESSKGAGHIEEFLMQFNGEGIQHVAFLTDDLVKTWDALKKIGMRFMTAPPDTYYEMLEGRLPDHGEPVDQLQARGILLDGSSVEGDKRLLLQIFSETLMGPVFFEFIQRKGDDGFGPFNFKELFESIERDQVRRGVLTAD | fully reversible inhibitor | – | 0.20 | 5.4 | 3.8 | 4.3 | 5.5 | –
K357: PfHPPD variant A188G, R189C, E335P, G336F, A340E (protein, HPPD variant - K357, PfHPPD variant A188G, R189C, E335P, G336F, A340E) MADLYENPMGLMGFEFIEFASPTPGTLEPIFEIMGFTKVATHRSKNVHLYRQGEINLILNNEPNSIASYFAAEHGPSVCGMAFRVKDSQKAYNRALELGAQPIHIDTGPMELNLPAIKGIGGAPLYLIDRFGEGSSIYDIDFVYLEGVERNPVGAGLKVIDHLTHNVYRGRMVYWANFYEKLFNFREGCYFDIKGEYTGLTSKAMSAPDGMIRIPLNEESSKGAGQIEEFLMQFNGEGIQHVAFLTDDLVKTWDALKKIGMRFMTAPPDTYYEMLEGRLPDHGEPVDQLQARGILLDGSSVEGDKRLLLQIFSETLMGPVFFEFIQRKGDDGFGPFNFKELFESIERDQVRRGVLTAD | fully reversible inhibitor | – | 0.47 | 5.4 | 3.5 | 4.1 | 5.3 | 5.1
K306: PfHPPD variant P215L, Q226H, E335P, G336F, A340E (protein, HPPD variant - K306, PfHPPD variant P215L, Q226H, E335P, G336F, A340E) MADLYENPMGLMGFEFIEFASPTPGTLEPIFEIMGFTKVATHRSKNVHLYRQGEINLILNNEPNSIASYFAAEHGPSVCGMAFRVKDSQKAYNRALELGAQPIHIDTGPMELNLPAIKGIGGAPLYLIDRFGEGSSIYDIDFVYLEGVERNPVGAGLKVIDHLTHNVYRGRMVYWANFYEKLFNFREARYFDIKGEYTGLTSKAMSAPDGMIRILLNEESSKGAGHIEEFLMQFNGEGIQHVAFLTDDLVKTWDALKKIGMRFMTAPPDTYYEMLEGRLPDHGEPVDQLQARGILLDGSSVEGDKRLLLQIFSETLMGPVFFEFIQRKGDDGFGPFNFKELFESIERDQVRRGVLTAD | fully reversible inhibitor | 4.9 | 0.01 | 5.1 | <2.5 | 3.7 | 4.8 | –
